Data as given in patent US20220127366A1 (DREN BIO, published 2022).
Where two headings read alike, the source gives them in different places.

Experiments:
[1] = biological target: T1, human Dectin-1 (isoform not given) (human, UniProt Q9BXN2 1-247); experiment: flow cytometry, human monocytes
T1 chain: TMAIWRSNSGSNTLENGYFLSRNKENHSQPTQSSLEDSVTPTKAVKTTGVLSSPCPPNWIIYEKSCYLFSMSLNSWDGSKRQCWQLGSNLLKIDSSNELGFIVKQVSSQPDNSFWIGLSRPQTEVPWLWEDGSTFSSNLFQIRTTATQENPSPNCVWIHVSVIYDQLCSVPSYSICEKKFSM

[2] = biological target: cynomolgus monkey Dectin-1 (cynomolgus monkey); experiment: flow cytometry, cynomolgus monkey monocytes
[3] = biological target: human Dectin-1 isoform A (human) (UniProt Q9BXN2); experiment: flow cytometry, HEK-Blue hDectin-1a cells
[4] = biological target: human Dectin-1 isoform B (human) (UniProt Q9BXN2); experiment: flow cytometry, HEK-Blue hDectin-1b cells
[5] = biological target: human Dectin-1 isoform A (human) (UniProt Q9BXN2); experiment: flow cytometry, HEK293F hDectin-1a FL cells
[6] = biological target: cynomolgus monkey Dectin-1 (cynomolgus monkey); experiment: flow cytometry, cynomolgus monkey monocytes; remark: listed apart in the source
human CD20 = biological target: T2, human CD20 (human, UniProt P11836 1-297); experiment: flow cytometry, Raji cells
T2 construct: whole, on cells; also called hCD20
T2 sequence (looked up): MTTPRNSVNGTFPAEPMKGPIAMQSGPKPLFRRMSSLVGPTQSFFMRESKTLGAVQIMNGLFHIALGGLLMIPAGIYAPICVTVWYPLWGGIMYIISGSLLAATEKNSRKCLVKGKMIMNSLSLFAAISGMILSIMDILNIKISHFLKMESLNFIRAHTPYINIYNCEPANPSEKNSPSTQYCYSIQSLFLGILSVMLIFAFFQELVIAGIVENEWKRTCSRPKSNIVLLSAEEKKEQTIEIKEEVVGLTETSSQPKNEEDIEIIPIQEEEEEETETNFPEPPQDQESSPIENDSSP

[7] = biological target: T1, human Dectin-1 (isoform not given); experiment: flow cytometry, HEK 293 cells stably overexpressing human Dectin-1
[8] = biological target: T1, human Dectin-1 (isoform not given); experiment: cell-based or functional assay

**Q.** What does the source list for “anti-Dectin-1 antibody 259931 (commercial)”?
**A.** EC50 [1]: 0.3 nM; EC50 [2]: 16 nM; EC50 [3]: 0.8 nM; EC50 [4]: 0.9 nM; EC50 [5]: 1.2 nM; EC50 [6]: 16.5 nM

**Q.** What does the source list for anti-Dectin-1 antibody GE2 (commercial)?
**A.** EC50 [1]: 1.4 nM; EC50 [3]: 1.9 nM; EC50 [4]: 12 nM; EC50 [5]: 2.4 nM

B1: 2M24/RSV hIgG1 (fucosylated or afucosylated) (bispecific antibody, V domains shown)
VH 1: QVQLVQSGAEVKKPGASVKVSCKSSGYTFTDYYIHWVRQAPGQGLEWMGWINPNSGDTNYAQKFQGRITMTRDTSISTAYLELSRLRSDDTAVFYCARNSGSYSFGYWGQGTLVTVSS
VL 1: DIQMTQSPSSVSASVGDRVTITCRASQGISSWLAWYQQKPGKAPKLLIFGASSLQSGVPSRFSGSGSGTDFTLTVSSLQPEDFATYYCQQAYSFPFTFGPGTKVDIE
VH 2: QVTLRESGPALVKPTQTLTLTCTFSGFSLSTSGMSVGWIRQPPGKALEWLADIWWDDKKDYNPSLKSRLTISKDTSANQVVLKVTNMDPADTATYYCARSMITNWYFDVWGAGTTVTVSS
VL 2: DIQMTQSPSTLSASVGDRVTITCKCQLSVGYMHWYQQKPGKAPKLLIYDTSKLASGVPSRFSGSGSGTAFTLTISSLQPDDFATYYCFQGSGYPFTFGGGTKLEIK
**Q.** Does B1 bind (human CD20)?
**A.** no binding (tested: between 10 and 100 nM (about 60 nM))

B2: 2M24/RSV hIgG1 inert (bispecific antibody, V domains shown)
VH 1: B1 VH 1
VL 1: B1 VL 1
VH 2: B1 VH 2
VL 2: B1 VL 2
notes: also called 2M24/RSV with inert human IgG1 Fc
**Q.** Does B2 bind (human CD20)?
**A.** no binding (tested: between 10 and 100 nM (about 60 nM))

B3: Fab 2M24-mSA fusion protein (Fab, V domains shown)
VH: B1 VH 1
VL: B1 VL 1
notes: only the 2M24 VL is tied; also called Fab 2M24 fusion to monomeric streptavidin
**Q.** How did the EC50 [7] turn out when B3 was run?
**A.** 1.45 nM

B4: anti-Dectin-1 antibody 15E2 (commercial) (antibody, V domains shown)
VH: QWQLQQSGAELARPGASWKMSCKASGYTFTTYTMHWWKQRPGQGLEWIGYINPSSGYTNYNQKFKDKATLTADKSSSTASMQLSSLTSEDSAWYYCARERAVLVPYAMDYWGQGTSVTVSS
VL: QIVLTQSPAVMSASPGEKWTITCTASSSLSYMHWFQQKPGTSPKLWLYSTSILASGVPTRFSGSGSGTSYSLTISRMEAEDAATYYCQQRSSSPFTFGSGTKLEIK
**Q.** What does the source list for B4?
**A.** IFNg secretion in PBMC (fold change to isotype), immobilized antibody [8]: 1.6 fold change to isotype; IL6 secretion in PBMC (fold change to isotype), immobilized antibody [8]: 2.6 fold change to isotype; TNFa secretion in PBMC (fold change to isotype), immobilized antibody [8]: 3 fold change to isotype
